Experimental data: paper PMC12692541

Test system: HalTzlAAA homotrinucleopeptide (synthetic (designed))
Assay: fluorescence anisotropy
Details: none

Row | Sequence | Kd [µM]
1 | CCAGAGAGCCUGGGAGCUCUCUGG [ΔTAR] | 161
2 | CCAGAUUUGAGCCUGGGAGCUCUCUGG [TAR UUU] | 30.1
